Experimental data reported in PMC9865355.

Tests used:
Assay in all cases: split reporter (BiFC, NanoBiT)
[1] = target: GLRaV-3 silencing suppressor p20B, BiFC fusion (grapevine leafroll-associated virus 3 (isolate GP18))
[2] = target: GLRaV-3 coat protein (CP), BiFC fusion (grapevine leafroll-associated virus 3 (isolate GP18))
[3] = target: GLRaV-3 heat shock protein 70 homolog (HSP70h), BiFC fusion (grapevine leafroll-associated virus 3 (isolate GP18))
[4] = target: GLRaV-3 transmembrane movement protein p5, BiFC fusion (grapevine leafroll-associated virus 3 (isolate GP18))

Row | Substance | average MI diff [1] | average MI diff [2] | average MI diff [3] | average MI diff [4]
1 | GLRaV-3 coat protein (CP), BiFC fusion (natural protein) | 55.7 | 27 | – | –
2 | GLRaV-3 heat shock protein 70 homolog (HSP70h), BiFC fusion (natural protein) | 45.5 | 34.6 | 51.8 | –
3 | GLRaV-3 minor coat protein (CPm), BiFC fusion (natural protein) | 27.2 | – | – | –
4 | GLRaV-3 silencing suppressor p20B, BiFC fusion (natural protein) | 92.7 | – | – | –
5 | GLRaV-3 transmembrane movement protein p5, BiFC fusion (natural protein) | – | – | – | 114
